Square brackets hold non-standard residues; d marks the D form. Ends that are not written are not given here. * marks the point of attachment. Biotin = O=C1N[C@H]2[C@H](CS[C@H]2CCCCC(=O)*)N1; pY = N[C@@H](Cc1ccc(OP(=O)(O)O)cc1)C(=O)O
T1: ZAP70 tSH2-GFP (tandem SH2 domains of human ZAP70, amino acids 1-264, with C-terminal GFP) (human, UniProt P43403 1-264)
T1 construct: tandem SH2 domains of human ZAP70 (Zeta-chain-associated protein kinase 70), amino acids 1-264; Cloned into pET21 between NdeI and NotI; source: E. coli BL21 (DE3), purified (Ni2+-NTA, Sephacryl S-200 size exclusion); not shown: GFP, C-terminal, kept
T1 sequence (looked up): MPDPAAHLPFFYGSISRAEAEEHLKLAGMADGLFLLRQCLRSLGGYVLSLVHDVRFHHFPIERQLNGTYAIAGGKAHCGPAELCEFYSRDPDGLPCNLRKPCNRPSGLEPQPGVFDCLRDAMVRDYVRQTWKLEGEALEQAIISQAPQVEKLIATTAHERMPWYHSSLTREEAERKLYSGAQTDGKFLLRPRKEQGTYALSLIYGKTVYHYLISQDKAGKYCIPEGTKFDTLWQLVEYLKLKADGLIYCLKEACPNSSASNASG

B1: ITAM3 NC (biphosphorylated CD3ζ ITAM3 peptide) (peptide)
peptide: Biotin-GKGHDLL[pY]QGLSTATKDT[pY]DALHMQ
notes: peptide derived from the membrane-distal ITAM of CD3ζ (ITAM3); also called ITAM NC; biphosphorylated ITAM3; source: synthetic peptide; bought: PeptideSynthetics (>95% pure)
B2: ITAM3 N (N-monophosphorylated CD3ζ ITAM3 peptide) (peptide)
peptide: Biotin-GKGHDLL[pY]QGLSTATKDTYDALHMQ
notes: peptide derived from the membrane-distal ITAM of CD3ζ (ITAM3); also called ITAM N; monophosphorylated ITAM3 N; source: synthetic peptide; bought: PeptideSynthetics (>95% pure)
B3: ITAM3 C (C-monophosphorylated CD3ζ ITAM3 peptide) (peptide)
peptide: Biotin-GKGHDLLYQGLSTATKDT[pY]DALHMQ
notes: peptide derived from the membrane-distal ITAM of CD3ζ (ITAM3); also called ITAM C; monophosphorylated ITAM3 C; source: synthetic peptide; bought: PeptideSynthetics (>95% pure)

Columns and labels:
[1] = molecular target: T1, ZAP70 tSH2-GFP (tandem SH2 domains of …); test: single particle tracking by TIRF microscopy; biotinylated ITAM3 peptides immobilised on coverslips coated with poly-L-lysine-PEG-biotin and streptavidin; ZAP70 tSH2-GFP or tSH2-Halo-Alexa647 at 200 nM in PBS/BSA with 1 mM DTT; 37°C; distributions of binding times fitted with exponentials (slow phase of a two-phase decay for the biphosphorylated peptide); details: both partners purified
[2] = molecular target: T1, ZAP70 tSH2-GFP (tandem SH2 domains of …); test: SPR; Biacore S200, 37°C, HBS-EP (10 mM HEPES pH 7.4, 150 mM NaCl, 1 mM EDTA, 0.005% Tween P20), 50 µl/min; biotinylated peptides or Avi-CD3ζ ITAM3 immobilised on streptavidin-coupled CM5 chips, ZAP70 tSH2-GFP injected; 1:1 binding model, 'effective' constants for the biphosphorylated peptide; on Avi-CD3ζ ITAM3 also ABA injections of 500 nM ZAP70 with CD45 cytoplasmic domain; details: both partners purified

Binder | koff [1] | Kd [2] | koff [2] | kon [2]
B1 | 0.368 ± 0.011 s⁻¹ | 96 nM | 0.227 s⁻¹ | 1.89e+06 M⁻¹ s⁻¹
B2 | 11.4 ± 0.011 s⁻¹ |  |  | 
B3 | 4.75 ± 0.14 s⁻¹ |  |  | 

— article doi:10.1101/2020.02.12.945170, “Regulated unbinding of ZAP70 at the T cell receptor by kinetic avidity” (bioRxiv, 2020)
